Laboratory results taken from article PMC3626623, “Homo-dimerization and ligand binding by the leucine-rich repeat domain at RHG1/RFS2 underlying resistance to two soybean pathogens” (BMC Plant Biology, 2013).
No end group written: not given here.

Legend:
GmRLK18-1 LRR domain = experiment: Far Western analysis of total root proteins probed with the LRR domain; assay type: binding, Glycine max; conditions: 2 D gels of total root proteins of SCN inoculated plants, identified by MS/MS; cyclophilin at 10 dai, methionine synthase at 28 dai
Description: For Far-Westerns the LRR domain was used as a probe to filters transferred from 1 or 2 D gels. As the secondary probe, anti-his antibody conjugated to HRP (1–10,000 dilution; Invitrogen, Carlsbad CA) was used. Spots and bands were picked manually and the proteins in them digested with trypsin and identified by direct infusion MS/MS following the methods in [31].

[1] = biological target: GmRLK18-1 LRR domain expressed in E. coli (soybean (Glycine max)); experiment: native gel or EMSA; 12% (w/v) non-denatured PAGE of purified, refolded GmRLK18-1-LRR from E. coli; bands eluted and run again on SDS-PAGE
[2] = biological target: GmRLK18-1 LRR domain expressed in E. coli (soybean (Glycine max)); experiment: fluorescence polarisation; FITC-labelled peptides in 20 mM phosphate buffer pH 6.9 in a cuvette, 5 nM aliquots, increase in polarisation; baseline of non-CLE and non-LRR peptides subtracted; Kd from double reciprocal Scatchard plots; 3 repeats with 3 protein preparations; apparent for peptide L
[3] = biological target: GmRLK08-1 LRR domain expressed in E. coli (soybean (Glycine max)); experiment: as above

Molecule	binding to the LRR domain in Far Western (in words) (GmRLK18-1 LRR domain)	stoichiometry N [1]	Kd [2] [nM]	Kd [3] [nM]
cyclophilin: soybean root cyclophilin, 182 amino acids, matches gi 17981611, 19,392 d, pI 8.38	avidly bound to the LRR	–	–	–
GmRLK18-1 LRR domain expressed in E. coli (domain or fragment)	–	2	–	–
SKRRVPNGPDPIHNR (not fully specified (N-terminus); also: labeled with FITC) [CLE peptide 36]	–	–	14	52
KGLGLHEEELRTVPSGPDPLHHHVNPPRQPR (not fully specified (N-terminus); also: labeled with FITC) [CLE peptide 3L]	–	–	65	142
CTLSRLKTLDISNNALNGNLPATLSNLS (not fully specified (N-terminus); also: labeled with FITC) [LRR peptide L of GmRLK18-1]	–	–	36	135
RAELDFNYMSKRRVPNGPDPIHNRRAGNSGR (not fully specified (N-terminus); also: labeled with FITC) [CLE peptide 36L]	–	–	49	51
RLAPGGPDPQHN (not fully specified (N-terminus); also: labeled with FITC) [CLE peptide 2]	–	–	45	96
RTVPSGPDPLHH (not fully specified (N-terminus); also: labeled with FITC) [CLE peptide 3]	–	–	29	50
KRLSPSGPDPHHH (not fully specified (N-terminus); also: labeled with FITC) [CLE peptide N]	–	–	30	78
AHEVPSGPNPISNR (not fully specified (N-terminus); also: labeled with FITC) [CLE peptide T]	–	–	20	204
DLPLAPADRLAGGPDPQHNVRAPPRKP (not fully specified (N-terminus); also: labeled with FITC) [CLE peptide 2L]	–	–	142	338
RLAPEGPDPHHN (not fully specified (N-terminus); also: labeled with FITC) [CLE peptide 30]	–	–	44	84
